Key:
[1] = target: T1, Human LILRB4/CD85k/ILT3 Protein (ECD, His Tag), Sino Biological (human, UniProt Q8NHJ6 22-259); test: ELISA, coated LILRB4 ECD-His, antibody titrated
T1 construct: extracellular domain; Bought recombinant protein with a His tag; also called 人LILRB4蛋白; LILRB4蛋白

[2] = target: T2, LILRB4 on LILRB4阳性细胞THP-1 (human, UniProt Q8NHJ6 22-448); test: flow cytometry on THP-1 cells
T2 construct: whole, on cells; also called LILRB4阳性肿瘤细胞THP-1; 人单核白血病细胞THP-1

[3] = target: T3, LILRB5/CD85c Protein, Human, Recombinant (ECD, His Tag), Sino Biological (human, UniProt O75023 24-458); test: ELISA, coated protein
T3 construct: extracellular domain; Bought recombinant protein with a His tag; also called LILRB5蛋白

[4] = target: T4, LILRB3 Protein, Human, Recombinant (ECD, His Tag), Sino Biological (human, UniProt O75022 24-443); test: ELISA, coated protein
T4 construct: extracellular domain; Bought recombinant protein with a His tag; also called LILRB3蛋白

[5] = target: T5, ILT4 Protein, Human, Recombinant (ECD, His Tag), Sino Biological (human, UniProt Q8N423 22-460); test: ELISA, coated protein
T5 construct: extracellular domain; Bought recombinant protein with a His tag; also called LILRB2蛋白

[6] = target: T6, LILRB1 Protein, Human, Recombinant (ECD, His Tag), Sino Biological (human, UniProt Q8NHL6 24-461); test: ELISA, coated protein
T6 construct: extracellular domain; Bought recombinant protein with a His tag; also called LILRB1蛋白
T6 sequence (Q8NHL6 24-461): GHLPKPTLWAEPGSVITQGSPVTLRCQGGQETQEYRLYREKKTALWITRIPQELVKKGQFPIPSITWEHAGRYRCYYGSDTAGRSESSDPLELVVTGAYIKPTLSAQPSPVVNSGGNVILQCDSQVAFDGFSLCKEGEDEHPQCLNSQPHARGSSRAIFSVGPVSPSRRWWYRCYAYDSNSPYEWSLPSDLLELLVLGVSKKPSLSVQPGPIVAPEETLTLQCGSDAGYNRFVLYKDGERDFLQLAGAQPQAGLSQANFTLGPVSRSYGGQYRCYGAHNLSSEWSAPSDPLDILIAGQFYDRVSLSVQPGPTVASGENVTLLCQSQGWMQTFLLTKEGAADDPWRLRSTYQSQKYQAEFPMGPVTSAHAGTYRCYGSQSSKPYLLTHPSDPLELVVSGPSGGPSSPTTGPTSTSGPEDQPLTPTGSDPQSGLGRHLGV

T4 sequence (O75022 24-443): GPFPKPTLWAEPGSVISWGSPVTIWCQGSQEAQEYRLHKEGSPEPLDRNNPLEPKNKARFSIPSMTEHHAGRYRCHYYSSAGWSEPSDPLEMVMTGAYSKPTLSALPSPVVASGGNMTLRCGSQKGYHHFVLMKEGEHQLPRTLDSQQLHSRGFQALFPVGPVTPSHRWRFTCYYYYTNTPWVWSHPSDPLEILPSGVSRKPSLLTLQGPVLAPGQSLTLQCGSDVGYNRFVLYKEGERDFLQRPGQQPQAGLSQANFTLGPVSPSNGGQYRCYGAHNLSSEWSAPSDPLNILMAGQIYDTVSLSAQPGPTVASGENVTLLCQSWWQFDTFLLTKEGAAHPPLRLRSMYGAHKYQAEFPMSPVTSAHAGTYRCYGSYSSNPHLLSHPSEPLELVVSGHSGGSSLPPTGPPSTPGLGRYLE
T3 sequence (O75023 24-458): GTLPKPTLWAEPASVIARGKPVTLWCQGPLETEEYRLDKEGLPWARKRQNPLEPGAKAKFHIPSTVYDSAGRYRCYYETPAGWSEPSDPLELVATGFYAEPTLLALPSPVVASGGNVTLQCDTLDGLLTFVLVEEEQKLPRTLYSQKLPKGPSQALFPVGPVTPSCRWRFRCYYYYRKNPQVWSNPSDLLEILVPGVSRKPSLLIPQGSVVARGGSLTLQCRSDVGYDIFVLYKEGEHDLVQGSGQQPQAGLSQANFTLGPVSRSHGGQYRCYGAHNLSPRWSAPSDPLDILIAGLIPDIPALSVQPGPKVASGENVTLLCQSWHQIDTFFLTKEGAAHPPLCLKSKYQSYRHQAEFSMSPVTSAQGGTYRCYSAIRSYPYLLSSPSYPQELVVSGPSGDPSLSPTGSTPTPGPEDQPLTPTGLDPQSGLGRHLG
T5 sequence (Q8N423 22-460): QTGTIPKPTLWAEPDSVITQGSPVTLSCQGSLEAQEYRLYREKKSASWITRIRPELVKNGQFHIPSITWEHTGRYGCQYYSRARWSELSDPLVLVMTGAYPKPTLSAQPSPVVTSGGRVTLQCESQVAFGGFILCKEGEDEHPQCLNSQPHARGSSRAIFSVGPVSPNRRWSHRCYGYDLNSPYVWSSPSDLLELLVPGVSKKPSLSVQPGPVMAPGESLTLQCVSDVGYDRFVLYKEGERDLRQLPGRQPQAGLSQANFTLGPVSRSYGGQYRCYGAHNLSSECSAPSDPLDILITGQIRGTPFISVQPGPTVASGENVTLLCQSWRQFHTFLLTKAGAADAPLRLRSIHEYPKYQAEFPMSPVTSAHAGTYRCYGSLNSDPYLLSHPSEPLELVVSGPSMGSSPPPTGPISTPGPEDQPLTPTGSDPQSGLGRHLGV

B1: 全人源抗体2B9 (antibody, V domains shown)
VH: EVQLVQSGGGLIQPGGSLRLSCAASGFTVSSNYMSWVRQAPGKGLEWVSVIYSGGSTYYADSVKGRFTISRDNSKNTLYLQMNSLRAEDTAVYYCAKGATGGHDAFDIWGQGTTVTVSS
VL: not shown
notes: Fully human antibody from a phage library, made as a whole antibody in CHO-S cells; IgG4 heavy chain constant region, Ig kappa light chain
binding result [1]: binds
binding result [2]: binds
binding result [3]: no binding (tested: 10 μg/mL)
binding result [4]: no binding (tested: 10 μg/mL)
binding result [5]: no binding (tested: 10 μg/mL)
binding result [6]: no binding (tested: 10 μg/mL)
